Measurements reported in PMC7725843, “Structural and biochemical analyses of an aminoglycoside 2′-N-acetyltransferase from Mycolicibacterium smegmatis” (Scientific Reports, 2020).

Columns and labels:
Assay in all cases: purified protein
Format in all cases: biochemical, Mycolicibacterium smegmatis
[1] = tested on: CC(=O)SCCNC(=O)CCNC(=O)[C@H](O)C(C)(C)COP(=O)(O)OP(=O)(O)OC[C@H]1O[C@@H](n2cnc3c(N)ncnc32)[C@H](O)[C@@H]1OP(=O)(O)O; conditions: aminoglycoside co-substrate not told, 50 mM MES pH 6.5, 200 μM DTNB, 25 °C
[2] = tested on: NC[C@H]1O[C@H](O[C@H]2[C@H](O)[C@@H](O[C@H]3O[C@H](CO)[C@@H](O)[C@H](N)[C@H]3O)[C@H](N)C[C@@H]2N)[C@H](O)[C@@H](O)[C@@H]1O; conditions: 300 μM acetyl-CoA, 50 mM MES pH 6.5, 200 μM DTNB, 25 °C
[3] = tested on: NC[C@@H]1O[C@H](O[C@H]2[C@@H](O)[C@H](O[C@@H]3[C@@H](O)[C@H](N)C[C@H](N)[C@H]3O[C@H]3O[C@H](CO)[C@@H](O)[C@H](O)[C@H]3N)O[C@@H]2CO)[C@H](N)[C@@H](O)[C@@H]1O; conditions: 300 μM acetyl-CoA, 50 mM MES pH 6.5, 200 μM DTNB, 25 °C
[4] = tested on: NC[C@H]1O[C@H](O[C@H]2[C@H](O)[C@@H](O[C@H]3O[C@H](CO)[C@@H](O)[C@H](N)[C@H]3O)[C@H](N)C[C@@H]2N)[C@H](N)C[C@@H]1O; conditions: 300 μM acetyl-CoA, 50 mM MES pH 6.5, 200 μM DTNB, 25 °C

**Q.** “AAC(2′)-Id (Mycolicibacterium smegmatis MC2 155)” was tested. Which kcat [1] did it give?
**A.** Its kcat is 0.34 ± 0.03 s⁻¹.

**Q.** And the kcat/Km [1]?
**A.** The kcat/Km was 5670 ± 1620 M⁻¹ s⁻¹.

**Q.** And the Km [2]?
**A.** The Km was “(1.67 ± 0.84) × 10^2 μM”.

**Q.** And the kcat [2]?
**A.** The kcat was 0.13 ± 0.03 s⁻¹.

**Q.** What about the kcat/Km [2] of the same substance?
**A.** Its kcat/Km is 817 ± 620 M⁻¹ s⁻¹.

**Q.** What about the Km [3] of the same substance?
**A.** Its Km is “(1.04 ± 0.14) × 10^2 μM”.

**Q.** What about the kcat [3] of the same substance?
**A.** The kcat was 1.08 ± 0.06 s⁻¹.

**Q.** And the kcat/Km [3]?
**A.** Its kcat/Km is 10400 ± 2100 M⁻¹ s⁻¹.

**Q.** And the Km [4]?
**A.** Its Km is “(1.86 ± 0.10) × 10^2 μM”.

**Q.** What about the kcat [4] of the same substance?
**A.** The kcat was 3.34 ± 0.1 s⁻¹.

**Q.** And the kcat/Km [4]?
**A.** The kcat/Km was 18000 ± 1600 M⁻¹ s⁻¹.
